In experiment [1] the target is T1, huFLT3-T227-His (human, UniProt P36888 27-543).
T1 construct: extracellular domain; also called FLT3 WT
Kind of experiment: BLI.
Experimental: (§1) Discovered scFvs were analyzed for binding to huCD33-R69-His or huCD33-G69-Fc recombinant proteins (for anti-CD33 scFvs; for CLL-1 scFvs, huCLL1-K244-Avi-Tev-His or huCLL1-Q244-Avi-Tev-His were used; for FLT3, huFLT3-T227-His or huFLT3-M227-Fc were used) using BLI on a ForteBio Octet HTX instrument. Streptavidin-coated biosensors were loaded with biotinylated anti-V5 tag monoclonal antibody for 5 min and were then quenched and blocked with 20 μM amine-PEG2-Biotin for 5 min. scFvs were captured on biosensors from scFv clone periplasmic extracts. huCD33 (or huCLL-1, or huFLT3) proteins were then associated with the captured scFvs for 2 minutes, followed by dissociation with buffer (1×HBST [10 mM HEPES pH 7.4, 150 mM NaCl, 0.05% Tween-20], 1 g/L BSA) for 5 minutes. […] Data was fitted with 1:1 Langmuir equation and off-rate values were reported.

The target in experiment [2] is T2, huFLT3-M227-Fc (human, UniProt P36888 27-543).
T2 construct: extracellular domain; also called FLT3 Mutant
In words: BLI. For orientation: BLI is a label-free optical method that tracks binding on a fibre tip over time.
Experimental: as §1

In experiment [3] the target is T3, huFLT3-T227 stably expressed on Ramos cells (human, UniProt P36888 27-993).
T3 construct: whole, on cells; also called FLT3 WT
Kind of experiment: FACS on cells.
Experimental: (§2) For FLT3, Ramos cells were engineered to stably express either the huFLT3-T227 or huFLT3-M227 variant at >200,000 receptors per cell. Parental, huFLT3-T227, and huFLT3-M227 Ramos cell lines were stained with differing levels of CellTrace Violet Cell Proliferation Kit (ThermoFisher, cat. #C34557) to barcode each cell line. Barcoded Ramos cell lines were fixed with paraformaldehyde and incubated with myc-labeled scFv periplasmic extracts and a secondary anti-myc PE-conjugated monoclonal antibody. Appropriate positive and negative controls were used. Stained cells were analyzed by flow cytometry (CytoFLEX, Beckman Coulter, Inc.) and binding was assessed by change in PE mean fluorescence intensity (MFI) of the barcoded cell populations.

Experiment [4] addresses T4, huCD33-G69 stably expressed on Jurkat cells (human, UniProt P20138 18-364).
T4 construct: whole, on cells; >200,000 receptors per cell; also called CD33 Mutant; CD33 R69G
Kind of experiment: FACS on cells.

Experiment [5] deals with T5, huCD33-R69 stably expressed on Jurkat cells (human, UniProt P20138 18-364).
T5 construct: whole, on cells; >200,000 receptors per cell; also called CD33 WT; CD33^ARG69
T5 sequence (P20138 18-364): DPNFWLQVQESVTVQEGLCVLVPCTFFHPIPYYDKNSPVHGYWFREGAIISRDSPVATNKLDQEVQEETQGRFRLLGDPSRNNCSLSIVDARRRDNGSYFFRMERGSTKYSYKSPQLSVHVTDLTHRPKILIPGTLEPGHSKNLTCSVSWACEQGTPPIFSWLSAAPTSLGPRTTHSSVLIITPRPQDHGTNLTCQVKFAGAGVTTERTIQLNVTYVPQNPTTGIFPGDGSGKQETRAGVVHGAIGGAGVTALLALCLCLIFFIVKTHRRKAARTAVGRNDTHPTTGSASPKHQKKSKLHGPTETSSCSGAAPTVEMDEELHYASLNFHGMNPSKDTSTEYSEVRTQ
In words: FACS on cells.

Experiment [6] addresses T6, huCD33-G69-Fc recombinant protein (human, UniProt P20138 18-259).
T6 construct: extracellular domain; also called CD33 R69G
In words: BLI.
Experimental: as §1

Experiment [7] concerns the target T7, huFLT3-M227 stably expressed on Ramos cells (human, UniProt P36888 27-993).
T7 construct: whole, on cells; also called FLT3 Mutant
Kind of experiment: FACS on cells.
Experimental: as §2

Some results are limits rather than exact numbers.
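For geometric mean MFI fold change over Jurkat parental in this document: fixed Jurkat cells bearing either CD33 variant, barcoded by dye, exposed to myc-tagged scFv periplasmic extracts, detected with anti-myc PE antibody and read by flow cytometry.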

T6 sequence (P20138 18-259 R69G): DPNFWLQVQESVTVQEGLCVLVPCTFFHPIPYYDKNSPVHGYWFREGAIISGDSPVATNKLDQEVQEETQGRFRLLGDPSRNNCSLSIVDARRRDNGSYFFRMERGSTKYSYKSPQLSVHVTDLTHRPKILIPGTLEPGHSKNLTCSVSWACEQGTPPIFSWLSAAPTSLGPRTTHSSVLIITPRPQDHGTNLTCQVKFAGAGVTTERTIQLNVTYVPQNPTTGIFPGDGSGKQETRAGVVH
T4 sequence (P20138 18-364 R69G): as the sequence (P20138 18-364) above, with R52G counted along it

B1: Polypeptide No. 232 (scFv, V domains shown)
VH: QVQLVQSGAEVKKPGASVKVSCKASGYTFTSYGIHWVRQAPGQGLEWMGGIIPIFGTASYAQKFQGRVTMTRDTSTSTVYMELSSLRSEDTAVYYCTRSNGIAAAGTHWYFDLWGRGTLVTVSS
VL: DIQMTQSPSSLSASVGDRVTITCRASQNIANSLNWYQQKPGKAPKLLIYAASSLQSGVPSRFSGSGSGTDFTLTISSLQPEDFATYYCQQYSSYPPTFGPGTKVDIKR
notes: scFv
With B1, the binding result in experiment [1] and in experiment [2] was “binds” throughout.

B2: Polypeptide No. 217 (scFv, V domains shown)
VH: QVQLVQSGAEVKKPGSSVKVSCKASGYTFTTFYLHWVRQAPGQGLEWIGGIIPMSGTANYAQKFQGRVTITADESTSTAYMELSSLRSEDTAVYYCASGGENGMDVWGQGTTVTVSS
VL: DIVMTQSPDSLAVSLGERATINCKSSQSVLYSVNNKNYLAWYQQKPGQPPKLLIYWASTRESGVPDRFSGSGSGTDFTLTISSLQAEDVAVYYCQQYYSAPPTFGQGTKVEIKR
notes: scFv
As to B2, the binding result in experiment [1] and in experiment [2] was “binds” each time.

B3: Polypeptide No. 227 (scFv, V domains shown)
VH: QVQLVQSGAEVKKPGSSVKVSCKASGYTLNELFMHWVRQAPGQGLEWVGGIIPMSGTTFYAQTFQGRVTITADESTSTAYMELSSLRSEDTAVYYCAKGVRQYSYGRYYYGMDVWGQGTLVTVSS
VL: DIQMTQSPSSLSASVGDRVTITCRASQSVSSYLNWYQQKPGKAPKLLIYGASNLQSGVPSRFSGSGSGTDFTLTISSLQPEDFATYYCQQSYTTPWTFGQGTRLEIKR
notes: scFv
In the case of B3, the binding result in experiment [1] and in experiment [2] was “binds” throughout.

B4: Polypeptide No. 234 (scFv, V domains shown)
VH: QVQLVQSGAEVKKPGSSVKVSCKASGHTFTAYYMHWVRQAPGQGLEWMGWMSPYSGNTGYAQNFQGRVTITADESTSTAYMELSSLRSEDTAVYYCARATRGTIQHWGQGTLVTVSS
VL: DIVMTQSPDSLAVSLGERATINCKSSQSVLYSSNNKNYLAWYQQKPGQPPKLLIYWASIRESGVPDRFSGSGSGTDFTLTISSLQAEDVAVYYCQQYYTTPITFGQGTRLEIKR
notes: scFv
Turning to B4, the binding result in experiment [1] and in experiment [2] was “binds” each time.

B5: Polypeptide No. 203 (scFv, V domains shown)
VH: QVQLVQSGAEVKKPGSSVKVSCKASGYTLTELSMHWVRQAPGQGLEWMGRIIPISGTANYAQKFQGRVTITADESTSTAYMELSSLRSEDTAVYYCARAARYCSSTSCYWRDGMDVWGQGTTVTVSS
VL: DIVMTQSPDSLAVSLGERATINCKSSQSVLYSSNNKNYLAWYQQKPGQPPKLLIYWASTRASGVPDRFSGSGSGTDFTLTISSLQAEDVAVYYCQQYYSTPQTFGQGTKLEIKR
notes: scFv
As to B5, in experiment [1], the binding result is reported as “no binding”. Besides, in experiment [3], the “FACS geometric mean fold change over Jurkat parental” value (shortened to “FACS geometric mean fold change”) is under 2 fold.

B6: Polypeptide No. 236 (scFv, V domains shown)
VH: QVQLVQSGAEVKKPGSSVKVSCKASGGTFSSYAISWVRQAPGQGLEWMGGIIPILGIANYAQKFQGRVTITADESTSTAYMELSSLRSEDTAVYYCAHVDGYGMDVWGQGTTVTVSS
VL: EIVMTQSPATLSVSPGERATLSCRASQSVSSNLAWYQQKPGQAPRLLIYDVSSRATGIPARFSGSGSGTEFTLTISSLQSEDFAVYYCQQLDAYPLTFGGGTKVEIKR
notes: scFv
B6: the binding result in experiment [1] and in experiment [2] was “binds” throughout.

B7: Polypeptide No. 21 (scFv, V domains shown)
VH: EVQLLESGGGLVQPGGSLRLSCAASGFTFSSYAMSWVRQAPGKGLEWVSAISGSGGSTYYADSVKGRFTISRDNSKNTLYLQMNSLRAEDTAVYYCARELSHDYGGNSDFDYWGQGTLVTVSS
VL: DIQMTQSPSSLSASVGDRVTITCQASQDISNNLNWYQQKPGKAPKLLIYAASGLQSGVPSRFSGSGSGTDFTLTISSLQPEDFATYYCQQANSFPLTFGGGTKVEIKR
notes: scFv
As to B7, the figures for the “geometric mean MFI fold change over Jurkat parental” value (shortened to “geometric mean MFI fold change”) in experiment [4] and in experiment [5] were under 2 fold and 2 to 10 fold, respectively. The binding result in experiment [6] was “no binding”.

B8: Polypeptide No. 19 (scFv, V domains shown)
VH: EVQLLESGGGLVQPGGSLRLSCAASGFTFSSYWMHWVRQAPGKGLEWVSGFSGSARTYYADSVKGRFTISRDNSKNTLYLQMNSLRAEDTAVYYCAREWSGFDYWGQGTLVTVSS
VL: DIQMTQSPSSLSASVGDRVTITCRASQNIGPWLAWYQQKPGKAPKLLIYDAKDLHPGVPSRFSGSGSGTDFTLTISSLQPEDFATYYCQQANTFPMTFGQGTRLEIKR
notes: scFv
With B8, the “geometric mean MFI fold change” value was under 2 fold in experiment [4] and over 30 fold in experiment [5]. Moreover, in experiment [6], the binding result was “no binding”.

B9: Polypeptide No. 23 (scFv, V domains shown)
VH: QVQLVQSGAEVKKPGASVKVSCKASGYPFTAHYIHWVRQAPGQGLEWMGWINPNSGGTNYAQKFQGRVTMTRDTSTSTVYMELSSLRSEDTAVYYCARDVEMATIGAYWYFDLWGRGTLVTVSS
VL: DIQMTQSPSSLSASVGDRVTITCRASQGINNWLAWYQQKPGKAPKLLIYDASNLETGVPSRFSGSGSGTDFTLTISSLQPEDFATYYCQQANSFPPTFGQGTKLEIKR
notes: scFv
On to B9, for which the “geometric mean MFI fold change” value in experiment [4] was under 2 fold; in experiment [5], 2 to 10 fold. The binding result in experiment [6] was “no binding”.

B10: Polypeptide No. 221 (scFv, V domains shown)
VH: QVQLVQSGAEVKKPGASVKVSCKASGYTFTDNYMHWVRQAPGQGLEWMGWMTPDSNNTGFAQNFQGRVTMTRDTSTSTVYMELSSLRSEDTAVYYCALGDGPFGMDVWGQGTTVTVSS
VL: DIVMTQSPLSLPVTPGEPASISCRSSQSLLHSNGYNYLDWYLQKPGQSPQLLIYGASYLQSGVPDRFSGSGSGTDFTLKISRVEAEDVGVYYCMQALQGPITFGQGTKVEIKR
notes: scFv
For B10, in experiment [1], the binding result is given as “no binding”. Also, the “FACS geometric mean fold change” value in experiment [7] is 2 to 10 fold; in experiment [3], under 2 fold.

B11: Polypeptide No. 1 (scFv, V domains shown)
VH: QVQLVQSGAEVKKPGASVKVSCKASGYSFTGYYIHWVRQAPGQGLEWMGWINPNSGGTNYAQKFQGRVTMTRDTSTSTVYMELSSLRSEDTAVYYCARDQWDGYNSGYFDYWGQGTLVTVSS
VL: DIQMTQSPSSLSASVGDRVTITCRASQTINDWLAWYQQKPGKAPKLLIYSASTLHSGVPSRFSGSGSGTDFTLTISSLQPEDFATYYCQQAYSTPWTFGQGTKVEIKR
notes: scFv
Turning to B11, the “geometric mean MFI fold change” value is under 2 fold in experiment [4] and over 30 fold in experiment [5]. Also, the binding result in experiment [6] was “no binding”.

B12: Polypeptide No. 230 (scFv, V domains shown)
VH: QVQLVQSGAEVKKPGSSVKVSCKASGGTFSSNAINWVRQAPGQGLEWMGGIIPLFGTTNYAQKFQGRVTITADESTSTAYMELSSLRSEDTAVYYCARVLSGWYGTYYFDYWGQGTLVTVSS
VL: EIVMTQSPATLSVSPGERATLSCRASQSVSADYIAWYQQKPGQAPRLLIYDVSTRASGIPARFSGSGSGTEFTLTISSLQSEDFAVYYCQHYGSSQVTFGQGTKVEIKR
notes: scFv
In the case of B12, the binding result in experiment [1] and in experiment [2] was “binds” throughout.

B13: Polypeptide No. 251 (scFv, V domains shown)
VH: QVQLVQSGAEVKKPGSSVKVSCKASGGTFSSDAINWVRQAPGQGLEWMGGIIPIVGTPTYAQKFQGRVTITADESTSTAYMELSSLRSEDTAVYYCAKGLAFGVFDGLDVWGQGTTVTVSS
VL: EIVMTQSPATLSVSPGERATLSCRASQSVSSNYLAWYQQKPGQAPRLLIYDVSTRATGIPARFSGSGSGTEFTLTISSLQSEDFAVYYCQQYGSSTLTFGGGTKVEIKR
notes: scFv
As to B13, the binding result in experiment [1] and in experiment [2] was “binds” throughout.

B14: Polypeptide No. 22 (scFv, V domains shown)
VH: QVQLVQSGAEVKKPGASVKVSCKASGYTFTDYYIHWVRQAPGQGLEWMGWINPNSGGTNYAQEFQGRVTMTRDTSTSTVYMELSSLRSEDTAVYYCARDHRIAVAGSYFDYWGQGTLVTVSS
VL: DIQMTQSPSSLSASVGDRVTITCRASRSIRTWLAWYQQKPGKAPKLLIYAASSLQTGVPSRFSGSGSGTDFTLTISSLQPEDFATYYCQQSYSTPYTFGQGTKLEIKR
notes: scFv
Take B14: the “geometric mean MFI fold change” value in experiment [4] is under 2 fold; in experiment [5], 2 to 10 fold. Also, the binding result in experiment [6] is given as “no binding”.

B15: Polypeptide No. 209 (scFv, V domains shown)
VH: EVQLLESGGGLVQPGGSLRLSCAASGFAFSSYVLHWVRQAPGKGLEWVAGIWVDGHNKDYADSVKGRFTISRDNSKNTLYLQMNSLRAEDTAVYYCAREFGAAGSFQHWGQGTLVTVSS
VL: DIQMTQSPSSLSASVGDRVTITCRASQSISTWLAWYQQKPGKAPKLLIYDASKLETGVPSRFSGSGSGTDFTLTISSLQPEDFATYYCQQSYTTPYTFGQGTKVEIKR
notes: scFv
Regarding B15, the binding result in experiment [1] and in experiment [2] was “binds” throughout.

B16: Polypeptide No. 25 (scFv, V domains shown)
VH: QVQLVQSGAEVKKPGASVKVSCKASGYTFTGYYMHWVRQAPGQGLEWMGRINPNGGSTTYAQKFQGRVTMTRDTSTSTVYMELSSLRSEDTAVYYCARDDFYYYYLDFWGKGTTVTVSS
VL: DIQMTQSPSSLSASVGDRVTITCRASQSINDWLAWYQQKPGKAPKLLIYAASNLQSGVPSRFSGSGSGTDFTLTISSLQPEDFATYYCQQGYSTPPTFGQGTKVEIKR
notes: scFv
As for B16, the “geometric mean MFI fold change” value in experiment [4] is under 2 fold; in experiment [5], over 30 fold. Also, the binding result in experiment [6] is on record as “no binding”.

B17: Polypeptide No. 202 (scFv, V domains shown)
VH: QVQLVQSGAEVKKPGASVKVSCKASGYTFTNYYMHWVRQAPGQGLEWMGVINPSGGSTNYAQKFQGRVTMTRDTSTSTVYMELSSLRSEDTAVYYCARAGVGAFHIWGQGTMVTVSS
VL: DIQMTQSPSSLSASVGDRVTITCRASQSIRSWLAWYQQKPGKAPKLLIYDASNLETGVPSRFSGSGSGTDFTLTISSLQPEDFATYYCQQIYSLPRTFGQGTKVEIKR
notes: scFv
As to B17, the binding result in experiment [1] was “no binding”. The entries for the “FACS geometric mean fold change” value in experiment [7] and in experiment [3] were 2 to 10 fold and under 2 fold, respectively.

B18: Polypeptide No. 216 (scFv, V domains shown)
VH: QVQLVQSGAEVKKPGSSVKVSCKASGNTFTMYYMHWVRQAPGQGLEWVGAIIPISGTVIYARKFQGRVTITADESTSTAYMELSSLRSEDTAVYYCARLSGGRMYDAFDIWGQGTTVTVSS
VL: not shown
notes: scFv
For the molecule B18, the binding result in experiment [1] and in experiment [2] was “binds” in each case.

Source of the values: patent US20240101668A1 (WUGEN, published 2024).
